Assay [1] addresses FAM-AIP-I (fluorescein-labeled AIP-I analog) (Staphylococcus aureus). Kind of assay: fluorescence polarisation. For orientation: Polarisation of emitted light reports the rotation of a fluorescent probe.
For assay [2], the target named is AgrC-I (wild type) dimer embedded in nanodiscs (Staphylococcus aureus). Briefly: SEC-MALS. A general note: Size exclusion chromatography separates by hydrodynamic size, large species first.

As a reminder, the Kd is the equilibrium constant for the complex coming apart. For orientation: stoichiometry N means a count of units in the complex or per binding partner.

B1: AgrC-I (wild type) dimer embedded in nanodiscs (receptor)
chain: MELLNSYNFVLFVLTQMILMFTIPAIISGIKYSKLDYFFIIVISTLSLFLFKMFDSASLIILTSFIIIMYFVKIKWYSILLIMTSQIILYCANYMYIVIYAYITKISDSIFVIFPSFFVVYVTISILFSYIINRVLKKISTPYLILNKGFLIVISTILLLTFSLFFFYSQINSDEAKVIRQYSFIFIGITIFLSILTFVISQFLLKEMKYKRNQEEIETYYEYTLKIEAINNEMRKFRHDYVNILTTLSEFIREDDMPGLRDYFNKNIVPMKDNLQMNAIKLNGIENLKVREIKGLITAKILRAQEMNIPISIEIPDEVSSINLNMIDLSRSIGIILDNAIEASTEIDDPIIRVAFIESENSVTFIVMNKCADDIPRIHELFQESFSTKGEGRGLGLSTLKEIADNADNVLLDTIIENGFFIQKVEIINN
modifications: not checked
B1 returned a Kd in assay [1] of 122 nM. The stoichiometry N in assay [2] came to 2.

These data come from article PMC4004102.
